# Measurements as given in patent US20250122306A1 (SUTRO BIOPHARMA, published 2025).
# T1: cynomolgus tissue factor (cynomolgus TF, Sino Bio #90885-C08H) (cynomolgus monkey, UniProt P13726 33-251 (human entry))
# T1 construct: bought recombinant antigen; also called cyno TF
# T1 chain: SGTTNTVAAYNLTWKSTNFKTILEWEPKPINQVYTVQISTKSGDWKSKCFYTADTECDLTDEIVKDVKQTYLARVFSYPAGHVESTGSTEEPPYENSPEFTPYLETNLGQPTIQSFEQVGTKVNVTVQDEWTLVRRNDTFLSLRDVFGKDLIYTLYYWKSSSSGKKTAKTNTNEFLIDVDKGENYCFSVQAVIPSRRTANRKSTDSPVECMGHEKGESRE
# T2: cynomolgus tissue factor on HEK293T-cynoTF cells (cynomolgus monkey, UniProt P13726 33-294 (human entry))
# T2 construct: stably transfected HEK293T cells
# T2 chain: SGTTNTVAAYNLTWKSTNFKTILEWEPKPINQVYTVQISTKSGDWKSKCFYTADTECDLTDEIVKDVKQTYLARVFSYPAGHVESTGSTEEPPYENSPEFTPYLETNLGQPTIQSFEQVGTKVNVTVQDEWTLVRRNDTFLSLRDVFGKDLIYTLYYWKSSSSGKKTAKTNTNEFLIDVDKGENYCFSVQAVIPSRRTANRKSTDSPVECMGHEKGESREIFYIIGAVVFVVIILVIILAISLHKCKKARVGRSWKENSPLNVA
# How the values were obtained:
# [1] = target: T1, cynomolgus tissue factor (cynomolgus …); test: Biacore SPR, single-point off-rate (100 nM antigen), antibody captured on anti-Fc
# Procedure: (§1) Anti-Fc polyclonal antibodies were immobilized onto a CM4 chip (Cytiva #BR100534) using amine coupling chemistry (Human Antibody Capture Kit, Cytiva #BR100839). The immobilization steps were carried out at a flow rate of 25 μL/min in 1×HBS-EP+buffer (Cytiva #BR100669). The sensor surfaces were activated for 7 min with a mixture of N-hydroxysuccinimide (NHS, 0.05 M) and 1-ethyl-3-(3-dimethylaminopropyl)-carbodiimide (EDC, 0.2 M). The anti-Fc polyclonal antibodies were injected over all 4 flow cells at a concentration of 25 μg/mL in 10 mM sodium acetate, pH 4.5, for 7 min. Ethanolamine (1 M, pH 8.5) was injected for 7 min to block any remaining activated groups.
# (§2) Off-rate and kinetic binding experiments were performed at 25° C. using 1×HBS-EP+buffer. Antibodies were injected over the anti-Fc surface at a concentration of 3 μg/mL for 12 seconds at a flow rate of 10 μL/min on flow cells 2, 3 and 4, followed by a buffer wash for 30 seconds at the same flow rate. Single point off-rate analysis was carried out using an antigen concentration of 100 nM. […] After capturing ligand (antibody) on the anti-Fc surface, the analyte (human TF, Lake Pharma; cynomolgus TF, Sino Bio #90885-C08H; mouse TF, R&D Systems #3178-PA) was bound for 180 seconds, followed by a 420 second dissociation phase at a flow rate of […]. Between each ligand capture and analyte binding cycle, regeneration was carried out using 2 injections of 10 mM glycine pH 2.0 for 30 seconds at 30 μL/min, followed by a 30 second buffer wash step.
# [2] = target: T3, human tissue factor (human TF, Lake Pharma) (human, UniProt P13726 33-251, limits assumed); test: as above
# T3 construct: bought recombinant antigen; also called CD142
# Procedure: as §1, §2
# [3] = target: tissue factor reagent of the Tissue Factor Activity Assay Kit (Abcam #ab108906) (UniProt P13726 33-295, limits assumed); test: cell-based or functional assay
# [4] = target: T1, cynomolgus tissue factor (cynomolgus …); test: Biacore SPR kinetics, antibody captured on anti-Fc, 1:1 Langmuir fit
# Procedure: as §1, §2
# (§3) The data were fit with the Biacore T200 Evaluation software, using a 1:1 Langmuir binding model. KD (affinity, nM) was determined as a ratio of the kinetic rate constants calculated from the fits of the association and dissociation phases.
# [5] = target: T3, human tissue factor (human TF, Lake …); test: as above
# Procedure: as §1, §2, §3
# [6] = target: T2, cynomolgus tissue factor on …; test: flow cytometry on HEK293T-cynoTF cells, one-site fit of MFI
# From the text: (§4) HEK293T, BxPC3 cells (TF positive) and NCI-H1703 (TF negative) cells were obtained from ATCC (American Type Culture Collection) and maintained in DMEM: F12 (1:1), high glucose (Corning) supplemented with 10% heat-inactivated fetal bovine serum (ThermoScientific), 1× Penicillin/Streptomycin (Corning) and 2 mmol glutamax (Thermo Fisher Scientific). To generate cells that stably expressing human tissue factor (HEK293T-humanTF) or cynomolgus tissue factor (HEK293T-cynoTF), HEK293T cells were transfected with plasmid vectors that contain the corresponding protein sequence and stable clones were selected with puromycin.
# (§5) For a fluorescence-activated cell sorting (FACS) cell-binding assay, cells were collected by Accutase and counted by the Vi-CELL Cell Viability Analyzersharvested and, then re-suspended in FACS buffer (DPBS buffer supplemented with 1% bovine serum albumin). A total of 200,000 cells in 100 μL were incubated on ice with 100 μL of anti-TF antibodies in each well of a 96-well plate. Cells were washed twice with ice-cold FACS buffer and then incubated on ice for 60 mins with 5 μg/mL Alexa 647-labeled donkey anti-human Fc antibody (Jackson ImmunoResearch). Unstained cells and cells stained with secondary antibody alone were used as controls. Cells were washed twice with FACS buffer and analyzed using a BD FACS Canto system. Geometric mean fluorescence intensities (MFI) were fitted using non-linear regression analysis with one site specific binding equation on GraphPad Prism (GraphPad Software; La Jolla, CA).
# [7] = target: T4, human tissue factor on cells (human, UniProt P13726 33-295); test: flow cytometry on HEK293T-humanTF cells, one-site fit of MFI
# T4 construct: cell-surface TF, transfected (HEK293T-humanTF) or endogenous (tumour lines, keratinocytes); the cell line is named under assay; also called HEK293T-humanTF; TF on BxPC3, primary human keratinocytes, NCI-H292, HCC1954, NCI-H1975
# From the text: as §4, §5
Binder,koff [1],koff [2],"FX conversion (% inhibition), 1000 nM antibody [3]",Kd [4],koff [4],kon [4],Kd [5],koff [5],kon [5],Bmax (MFI) [6],Kd [6],Bmax (MFI) [7],Kd [7]
"SRP2900-H09 (antibody, IgG1, V domains shown) VH: EVQLVESGGGLVQPGGSLRLSCAASGFTISDYVIHWVRQAPGKGLEWVGYIDPSNGYTYYADSVKGRFTISADTSKNTAYLQMNSLRAEDTAVYYCARDDQSISSPLDYWGQGTLVTVSS VL: not shown",0.00584 s⁻¹,0.00169 s⁻¹,4.48%,,,,,,,,,,
"mAb 46: aTF_2900-H09_HC_Y180/F404TAG_SerOpt; Trastuzumab LC SerOpt (antibody, human IgG1, kappa, V domains shown, non-natural amino acid (pAMF) at TAG sites Y180 and F404 (EU), * in the sequence, unconjugated full-length IgG1/kappa) VH: EVQLVESGGGLVQPGGSLRLSCAASGFTISDYVIHWVRQAPGKGLEWVGYIDPSNGYTYYADSVKGRFTISADTSKNTAYLQMNSLRAEDTAVYYCARDDQSISSPLDYWGQGTLVTVSS VL: not shown",,,,41.6 nM,0.00681 s⁻¹,164000 M⁻¹ s⁻¹,6.24 nM,0.00226 s⁻¹,362000 M⁻¹ s⁻¹,483000 MFI,38 nM,300000 MFI,0.93 nM
"mAb 42: aTF_2900-C11_HC_Y180/F404TAG_SerOpt; Trastuzumab LC SerOpt (antibody, human IgG1, kappa, V domains shown, non-natural amino acid (pAMF) at TAG sites Y180 and F404 (EU), * in the sequence, unconjugated full-length IgG1/kappa) VH: EVQLVESGGGLVQPGGSLRLSCAASGFTISQYWIHWVRQAPGKGLEWVGYIDPYNGYTYYADSVKGRFTISADTSKNTAYLQMNSLRAEDTAVYYCARDYGSWRIRLDYWGQGTLVTVSS VL: not shown",,,,24.2 nM,0.00309 s⁻¹,128000 M⁻¹ s⁻¹,3.59 nM,0.000674 s⁻¹,188000 M⁻¹ s⁻¹,426000 MFI,16 nM,275000 MFI,0.8 nM
"mAb 43: aTF_2900-F06_HC_Y180/F404TAG_SerOpt; Trastuzumab LC SerOpt (antibody, human IgG1, kappa, V domains shown, non-natural amino acid (pAMF) at TAG sites Y180 and F404 (EU), * in the sequence, unconjugated full-length IgG1/kappa) VH: EVQLVESGGGLVQPGGSLRLSCAASGFTISIYTIHWVRQAPGKGLEWVGYIDPSNGYTYYADSVKGRLTISADTSKNTAYLQMNSLRAEDTAVYYCARDPQSISSPFDYWGQGTLVTVSS VL: not shown",,,,7.33 nM,0.00231 s⁻¹,316000 M⁻¹ s⁻¹,19.1 nM,0.00594 s⁻¹,311000 M⁻¹ s⁻¹,419000 MFI,21 nM,253000 MFI,1.7 nM
"mAb 44: aTF_2900-F09_HC_Y180/F404TAG_SerOpt; Trastuzumab LC SerOpt (antibody, human IgG1, kappa, V domains shown, non-natural amino acid (pAMF) at TAG sites Y180 and F404 (EU), * in the sequence, unconjugated full-length IgG1/kappa) VH: EVQLVESGGGLVQPGGSLRLSCAASGFTIHDYVIHWVRQAPGKGLEWVGYIDPSNGYTYYADSVKGRFTISADTSKNTAYLQMNSLRAEDTAVYYCARDDQSISSPLDYWGQGTLVTVSS VL: not shown",,,,18.9 nM,0.00309 s⁻¹,164000 M⁻¹ s⁻¹,5.42 nM,0.00196 s⁻¹,362000 M⁻¹ s⁻¹,429000 MFI,29 nM,296000 MFI,0.9 nM
"mAb 45: aTF_2900-H06_HC_Y180/F404TAG_SerOpt; Trastuzumab LC SerOpt (antibody, human IgG1, kappa, V domains shown, non-natural amino acid (pAMF) at TAG sites Y180 and F404 (EU), * in the sequence, unconjugated full-length IgG1/kappa) VH: EVQLVESGGGLVQPGGSLRLSCAASGFTIAAYIIHWVRQAPGKGLEWVGYIDPSNGYTYYADSVKGRFTISADTSKNTAYLQMNSLRAEDTAVYYCARDDQSFSSPFDYWGQGTLVTVSS VL: not shown",,,,0.255 nM,0.000309 s⁻¹,1.21e+06 M⁻¹ s⁻¹,7.78 nM,0.00426 s⁻¹,547000 M⁻¹ s⁻¹,441000 MFI,7.5 nM,302000 MFI,1.3 nM
"SRP2900-H11 (antibody, IgG1, V domains shown) VH: EVQLVESGGGLVQPGGSLRLSCAASGFTISSYIIHWVRQAPGKGPEWVGYIDPSNGYTYYADSVKGRFTISADTSKNTAYLQMNSLRAEDTAVYYCARDPQTLTSPFDYWGQGTLVTVSS VL: not shown",0.000946 s⁻¹,0.0025 s⁻¹,-3.63%,,,,,,,,,,
"mAb 47: aTF_2842-B01_HC3_Y180/F404TAG; aTF_2842-B01_LC1 (antibody, IgG1, V domains shown, non-natural amino acid (pAMF) at TAG sites Y180 and F404 (EU), * in the sequence, unconjugated full-length IgG1/kappa; also called 2842-B01 HC3/LC1) VH: EVQLVESGGGLVQPGGSLRLSCAASGFSISSYDMSWVRQAPGKGLEWIGIIGSNGRTYYPDSVKGRFTISRDNSKNTVTLQMNSLRAEDTAVYYCARGLYDGTGNIWGQGTLVTVSS VL: DLQMTQSPSSLSASVGDRVTITCRASQSVYGNNWLSWYQQKPGKAPKLLIYGASKLASGVPSRFSGSGSGTQFTLTISSLQPEDFATYYCQGTYYSGDWYFAFGQGTKVEIKR",,,,20.1 nM,0.00166 s⁻¹,82700 M⁻¹ s⁻¹,7.81 nM,0.000422 s⁻¹,54000 M⁻¹ s⁻¹,501000 MFI,3.2 nM,351000 MFI,3.3 nM
"mAb 48: aTF_2842-B01_HC1_Y180/F404TAG; aTF_2842-B01_LC3 (antibody, IgG1, V domains shown, non-natural amino acid (pAMF) at TAG sites Y180 and F404 (EU), * in the sequence, unconjugated full-length IgG1/kappa; also called 2842-B01 HC1/LC3) VH: QVQVVESGGGLVKPGGSLRLSCAASGFSISSYDMSWIRQAPGKGLEWIGIIGSNGRTYYADSVKGRFTISRNTNENTVYLQMNSLRAEDTAVYYCARGLYDGTGNIWGQGTLVTVSS VL: DIQMTQSPSSLSASVGDRVTITCQASQSVYGNNWLSWYQQKPGKAPKLLIYGASKLASGVPSRFSGSGSGTDFTLTISSLQPEDFATYYCQGTYYSGDWYFAFGGGTKVEIKR",,,,60.7 nM,0.00735 s⁻¹,121000 M⁻¹ s⁻¹,17.4 nM,0.00124 s⁻¹,71200 M⁻¹ s⁻¹,486000 MFI,3.4 nM,318000 MFI,2.3 nM
